Consider six molecules from patent US20260015399A1 (Boehringer Ingelheim, published 2026).

The target in test [1] is T1, human NPY2 receptor (human, UniProt P49146 1-381).
T1 sequence (looked up): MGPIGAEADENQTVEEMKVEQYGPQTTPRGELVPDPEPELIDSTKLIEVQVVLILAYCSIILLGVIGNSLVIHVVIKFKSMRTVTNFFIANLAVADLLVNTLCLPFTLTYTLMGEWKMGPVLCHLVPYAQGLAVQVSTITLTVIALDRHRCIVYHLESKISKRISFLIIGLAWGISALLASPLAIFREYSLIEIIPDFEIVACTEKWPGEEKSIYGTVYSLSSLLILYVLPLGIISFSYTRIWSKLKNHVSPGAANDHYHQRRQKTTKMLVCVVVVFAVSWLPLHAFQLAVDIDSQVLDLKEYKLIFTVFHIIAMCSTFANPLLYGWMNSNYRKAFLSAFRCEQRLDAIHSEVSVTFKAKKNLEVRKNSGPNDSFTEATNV
As to the kind of experiment: cell-based or functional assay.

The target in another test is T2, human NPY1 receptor (human, UniProt P25929 1-384).
T2 sequence (looked up): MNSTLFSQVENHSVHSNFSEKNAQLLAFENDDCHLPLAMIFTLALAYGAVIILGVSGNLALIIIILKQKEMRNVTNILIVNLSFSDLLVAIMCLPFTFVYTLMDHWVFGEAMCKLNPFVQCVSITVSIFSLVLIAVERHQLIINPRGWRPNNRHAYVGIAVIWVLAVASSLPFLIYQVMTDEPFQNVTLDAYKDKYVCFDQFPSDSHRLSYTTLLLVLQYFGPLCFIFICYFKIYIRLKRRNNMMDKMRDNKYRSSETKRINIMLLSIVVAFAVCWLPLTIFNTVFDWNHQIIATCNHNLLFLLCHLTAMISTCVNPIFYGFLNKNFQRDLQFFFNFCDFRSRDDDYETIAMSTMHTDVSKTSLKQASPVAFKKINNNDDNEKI
As to the kind of experiment: cell-based or functional assay.

The target in another test is human NPY4 receptor (human, UniProt P50391 1-375). Nature of the test: cell-based or functional assay.
For a further test, the target named is T3, human NPY5 receptor (human, UniProt Q15761 1-445).
T3 sequence (looked up): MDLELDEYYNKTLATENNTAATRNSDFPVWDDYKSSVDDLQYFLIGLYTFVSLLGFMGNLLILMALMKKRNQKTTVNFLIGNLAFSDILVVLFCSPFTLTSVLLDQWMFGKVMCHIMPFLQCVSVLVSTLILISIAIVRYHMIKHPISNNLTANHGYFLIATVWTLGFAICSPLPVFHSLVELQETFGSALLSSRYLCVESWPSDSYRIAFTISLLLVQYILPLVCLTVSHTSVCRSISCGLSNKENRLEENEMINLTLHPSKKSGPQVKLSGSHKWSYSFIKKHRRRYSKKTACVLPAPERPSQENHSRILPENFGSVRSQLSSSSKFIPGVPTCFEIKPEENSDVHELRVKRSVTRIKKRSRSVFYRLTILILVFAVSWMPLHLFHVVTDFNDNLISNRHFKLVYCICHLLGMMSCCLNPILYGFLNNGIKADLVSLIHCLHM
Nature of the test: cell-based or functional assay.

Test [2] has as its target T1, human NPY2 receptor. As to the kind of experiment: RLB: displacement of 125I-PYY(1-36) from hNPY2R membranes.
Test [3] has as its target T1, human NPY2 receptor. Nature of the test: RLB, apparent Ki of filtrate after incubation at pH 8.1-8.2 (assumed 10 mg/ml). How it is done:
(§1) The filtration RLB assay was carried out in 96-well plates in a final volume of 100 μl per well. Freeze-dried test peptides were dissolved in 100% dimethyl sulfoxide (DMSO) to stock solutions of 1 mM and serial dilutions were performed in assay buffer (50 mM HEPES, 5 mM MgCl₂, 1 mM CaCl₂), pH 7.4) containing 0.2% ovalbumin. […] Next, 80 μL membranes (HTS066M, ChemiSCREEN™ Human Neuropeptide Y2 Receptor Membrane Preparation, CHEMICON) were added to each well to give a final protein concentration of 0.5 μg/well. The plates were sealed and incubated at room temperature for 2 hours in a plate shaker set at 400 rpm. The incubation was stopped by vacuum filtration onto 0.5% polyethylene amine (PEI) presoaked GF/C filters using a 96-well FilterMate™ harvester (Perkin Elmer) followed by four washes with 300 μl/well ice-cold wash buffer (50 mM HEPES, 500 mM NaCl, pH7.4). Filter plates were then dried for 60 min at room temperature and the bottom of the plates was sealed with backing tape UniFilter-96. Finally, 50 μl/well scintillation counter cocktail (Microscint20, Packard) was added and the radioactivity was counted in the Packard TopCount NXT scintillation counter. IC₅₀ values (the half maximal inhibitory concentration of the agonist) were calculated by nonlinear regression analysis of sigmoidal dose-response curves.
The peptide was (partially) dissolved by shaking the filter unit horizontally at approx. 400 rpm for 2 hours at room temperature. The sample was filtered to remove any insoluble particles.

Test [4] concerns the target T1, human NPY2 receptor. As to the kind of experiment: RLB, apparent Ki of filtrate after incubation at pH 7.1-7.2 (assumed 10 mg/ml). The protocol:
as §1, with “curves. […]” for “curves.”

Test [5] has as its target T1, human NPY2 receptor. As to the kind of experiment: ratio of apparent Ki, pH 6 filtrate vs pH 7 filtrate. How it is done: as §1, with “curves. […]” for “curves.”
In test [6] the target is T1, human NPY2 receptor. Nature of the test: ratio of apparent Ki, pH 8 filtrate vs pH 7 filtrate. How it is done:
as §1, with “curves. […]” for “curves.”

Test [7] has as its target T1, human NPY2 receptor. As to the kind of experiment: RLB (125I-PYY(1-36) displacement, hNPY2R membranes), peptide from DMSO stock. How it is done:
as §1, with “curves. […]” for “curves.”

The target of test [8] is T1, human NPY2 receptor. Nature of the test: RLB, apparent Ki of filtrate after incubation at pH 6.1-6.2 (assumed 10 mg/ml). The protocol: as §1, with “curves. […]” for “curves.”

*1 amine or outer side, *2 acyl side, *3 side chain or, on linkers, in order; H or OH if unused. Side-chain parts run from the residue outwards. The star is where a group is joined. C18 diacid = O=C(O)CCCCCCCCCCCCCCCCC(=O)*; γGlu = O=C(O)[C@H](CCC(=O)[*:2])N[*:1]; Isovaleryl = CC(C)CC(=O)*; Ahx = NCCCCCC(=O)O Where only a bound is given, the exact number is not on record here.

human NPY4 receptor, sequence (P50391 whole entry): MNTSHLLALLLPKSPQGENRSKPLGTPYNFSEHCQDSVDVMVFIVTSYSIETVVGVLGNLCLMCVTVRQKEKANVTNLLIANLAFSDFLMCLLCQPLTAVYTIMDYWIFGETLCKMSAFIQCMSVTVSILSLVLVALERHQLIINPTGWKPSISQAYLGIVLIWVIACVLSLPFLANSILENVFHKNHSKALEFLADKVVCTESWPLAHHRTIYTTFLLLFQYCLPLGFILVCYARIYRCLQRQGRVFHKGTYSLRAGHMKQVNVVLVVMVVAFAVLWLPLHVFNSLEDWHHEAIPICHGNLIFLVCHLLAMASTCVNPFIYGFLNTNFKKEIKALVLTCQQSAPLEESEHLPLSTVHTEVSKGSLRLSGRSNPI

Isovaleryl-APEK([Ahx-γGlu-C18 diacid])PEADATPEEIQRYYVSLRHYYNWLTRQRY-NH2 [Compound 7]: the “EC50, HTRF cAMP Gi assay” value with human NPY2 receptor [1] was 0.143 nM; with human NPY1 receptor, over 5000 nM; with human NPY4 receptor it was over 5000 nM; in the test with human NPY5 receptor it was over 5000 nM. Besides, the figures for the Ki with human NPY2 receptor [2] and with human NPY2 receptor [3] were 1.04 nM and 3.1 nM, respectively.

As to Isovaleryl-APEK([Ahx-γGlu-C18 diacid])PEADASPEEIQRYYIALRHYYNWLTRQRY-NH2 [Compound 40], the “EC50, HTRF cAMP Gi assay” value in the test with human NPY2 receptor [1] is 0.122 nM; in the test with human NPY1 receptor, over 5000 nM; with human NPY4 receptor, over 5000 nM; with human NPY5 receptor, over 5000 nM. Also, the Ki in the test with human NPY2 receptor [2] turned out to be 0.67 nM; with human NPY2 receptor [4] it was 7.3 nM; with human NPY2 receptor [3], 3.8 nM.

B1: Compound 176 (peptide)
peptide: Isovaleryl-APEK([Ahx-γGlu-C18 diacid])PEEDATPEEIQRYYVSLRHYYNWLTRQRY-NH2
SMILES: CC[C@H](C)[C@H](NC(=O)[C@H](CCC(=O)O)NC(=O)[C@H](CCC(=O)O)NC(=O)[C@@H]1CCCN1C(=O)[C@@H](NC(=O)[C@H](C)NC(=O)[C@H](CC(=O)O)NC(=O)[C@H](CCC(=O)O)NC(=O)[C@H](CCC(=O)O)NC(=O)[C@@H]1CCCN1C(=O)[C@H](CCCCNC(=O)CCCCCNC(=O)CC[C@H](NC(=O)CCCCCCCCCCCCCCCCC(=O)O)C(=O)O)NC(=O)[C@H](CCC(=O)O)NC(=O)[C@@H]1CCCN1C(=O)[C@H](C)NC(=O)CC(C)C)[C@@H](C)O)C(=O)N[C@@H](CCC(N)=O)C(=O)N[C@@H](CCCNC(=N)N)C(=O)N[C@@H](Cc1ccc(O)cc1)C(=O)N[C@@H](Cc1ccc(O)cc1)C(=O)N[C@H](C(=O)N[C@@H](CO)C(=O)N[C@@H](CC(C)C)C(=O)N[C@@H](CCCNC(=N)N)C(=O)N[C@@H](Cc1c[nH]cn1)C(=O)N[C@@H](Cc1ccc(O)cc1)C(=O)N[C@@H](Cc1ccc(O)cc1)C(=O)N[C@@H](CC(N)=O)C(=O)N[C@@H](Cc1c[nH]c2ccccc12)C(=O)N[C@@H](CC(C)C)C(=O)N[C@H](C(=O)N[C@@H](CCCNC(=N)N)C(=O)N[C@@H](CCC(N)=O)C(=O)N[C@@H](CCCNC(=N)N)C(=O)N[C@@H](Cc1ccc(O)cc1)C(N)=O)[C@@H](C)O)C(C)C
In the case of B1, the “EC50, HTRF cAMP Gi assay” value in the test with human NPY2 receptor [1] was 0.168 nM; with human NPY1 receptor, over 5000 nM; with human NPY4 receptor it was over 5000 nM; with human NPY5 receptor, over 5000 nM. Further, the “RLB ratio (RLB6/RLB7)” value with human NPY2 receptor [5] was 1. Further, the “RLB ratio (RLB8/RLB7)” value with human NPY2 receptor [6] was 1.4. Besides, the Ki with human NPY2 receptor [2] stood at 1.48 nM; with human NPY2 receptor [7] it was 8.7 nM; in the test with human NPY2 receptor [8], 3.9 nM; with human NPY2 receptor [4], 4 nM; with human NPY2 receptor [3] it was 5.7 nM.

Take Isovaleryl-APAK([Ahx-γGlu-C18 diacid])PEEDASPEEIQRYYVSLRHYYNWLTRQRY-NH2 [Compound 63]: the “EC50, HTRF cAMP Gi assay” value was 0.109 nM with human NPY2 receptor [1], over 5000 nM in the test with human NPY1 receptor, over 5000 nM with human NPY4 receptor and over 5000 nM with human NPY5 receptor. The Ki with human NPY2 receptor [2] was found to be 0.93 nM; with human NPY2 receptor [7] it was 6.6 nM.

B2: Compound 195 (peptide)
peptide: Isovaleryl-APAK([Ahx-γGlu-C18 diacid])PEEDASPEEIQRYYISLRHYYNWLTRQRY-NH2
SMILES: CC[C@H](C)[C@H](NC(=O)[C@H](Cc1ccc(O)cc1)NC(=O)[C@H](Cc1ccc(O)cc1)NC(=O)[C@H](CCCNC(=N)N)NC(=O)[C@H](CCC(N)=O)NC(=O)[C@@H](NC(=O)[C@H](CCC(=O)O)NC(=O)[C@H](CCC(=O)O)NC(=O)[C@@H]1CCCN1C(=O)[C@H](CO)NC(=O)[C@H](C)NC(=O)[C@H](CC(=O)O)NC(=O)[C@H](CCC(=O)O)NC(=O)[C@H](CCC(=O)O)NC(=O)[C@@H]1CCCN1C(=O)[C@H](CCCCNC(=O)CCCCCNC(=O)CC[C@H](NC(=O)CCCCCCCCCCCCCCCCC(=O)O)C(=O)O)NC(=O)[C@H](C)NC(=O)[C@@H]1CCCN1C(=O)[C@H](C)NC(=O)CC(C)C)[C@@H](C)CC)C(=O)N[C@@H](CO)C(=O)N[C@@H](CC(C)C)C(=O)N[C@@H](CCCNC(=N)N)C(=O)N[C@@H](Cc1c[nH]cn1)C(=O)N[C@@H](Cc1ccc(O)cc1)C(=O)N[C@@H](Cc1ccc(O)cc1)C(=O)N[C@@H](CC(N)=O)C(=O)N[C@@H](Cc1c[nH]c2ccccc12)C(=O)N[C@@H](CC(C)C)C(=O)N[C@H](C(=O)N[C@@H](CCCNC(=N)N)C(=O)N[C@@H](CCC(N)=O)C(=O)N[C@@H](CCCNC(=N)N)C(=O)N[C@@H](Cc1ccc(O)cc1)C(N)=O)[C@@H](C)O
As to B2, the “EC50, HTRF cAMP Gi assay” value is 0.197 nM in the test with human NPY2 receptor [1], over 5000 nM with human NPY1 receptor, over 5000 nM with human NPY4 receptor and over 5000 nM with human NPY5 receptor. In the test with human NPY2 receptor [2], the Ki was 0.78 nM.

With Isovaleryl-APEK([Ahx-γGlu-C18 diacid])PEADASPEELQRYYVALRHYYNWLTRQRY-NH2 [Compound 163], the “EC50, HTRF cAMP Gi assay” value in the test with human NPY2 receptor [1] is 0.13 nM; with human NPY1 receptor it was over 5000 nM; with human NPY4 receptor, over 5000 nM; with human NPY5 receptor, over 5000 nM. Moreover, the Ki with human NPY2 receptor [2] was 0.67 nM; in the test with human NPY2 receptor [3] it was 4.9 nM.
